B1: mutant loxP #53 (dsDNA)
DNA 1: ATAACTTCGTATAATGTCTGCTATACGAAGTTAT
DNA 2: ATAACTTCGTATAGCAGACATTATACGAAGTTAT
B2: mutant loxP #52 (dsDNA)
DNA 1: B1 DNA 1 with C18T
DNA 2: B1 DNA 2 with G17A
B3: mutant loxP #41 (dsDNA)
DNA 1: B1 DNA 1 with T17C, C18A
DNA 2: B1 DNA 2 with G17T, A18G
B4: mutant loxP #51 (dsDNA)
DNA 1: B1 DNA 1 with C18G
DNA 2: B1 DNA 2 with G17C
B5: mutant loxP #63 (dsDNA)
DNA 1: B1 DNA 1 with C18A, T19G
DNA 2: B1 DNA 2 with A16C, G17T
B6: mutant loxP #61 (dsDNA)
DNA 1: B1 DNA 1 with C18A, T19C
DNA 2: B1 DNA 2 with A16G, G17T
B7: mutant loxP #62 (dsDNA)
DNA 1: B1 DNA 1 with C18A, T19A
DNA 2: B1 DNA 2 with A16T, G17T
B8: mutant loxP #2172 (dsDNA)
DNA 1: B1 DNA 1 with T15C, C18A, G20C
DNA 2: B1 DNA 2 with C15G, G17T, A20G
B9: mutant loxP #4272 (dsDNA)
DNA 1: B1 DNA 1 with T17A, C18A, G20C
DNA 2: B1 DNA 2 with C15G, G17T, A18T
B10: mutant loxP #3171 (dsDNA)
DNA 1: B1 DNA 1 with G16A, C18A, G20A
DNA 2: B1 DNA 2 with C15T, G17T, C19T
B11: mutant loxP #4371 (dsDNA)
DNA 1: B1 DNA 1 with T17G, C18A, G20A
DNA 2: B1 DNA 2 with C15T, G17T, A18C
B12: mutant loxP #4271 (dsDNA)
DNA 1: B1 DNA 1 with T17A, C18A, G20A
DNA 2: B1 DNA 2 with C15T, G17T, A18T
B13: mutant loxP #2171 (dsDNA)
DNA 1: B1 DNA 1 with T15C, C18A, G20A
DNA 2: B1 DNA 2 with C15T, G17T, A20G
B14: mutant loxP #4372 (dsDNA)
DNA 1: B1 DNA 1 with T17G, C18A, G20C
DNA 2: B1 DNA 2 with C15G, G17T, A18C
B15: mutant loxP #2273 (dsDNA)
DNA 1: B1 DNA 1 with T15A, C18A, G20T
DNA 2: B1 DNA 2 with C15A, G17T, A20T
B16: mutant loxP #2371 (dsDNA)
DNA 1: B1 DNA 1 with T15G, C18A, G20A
DNA 2: B1 DNA 2 with C15T, G17T, A20C
B17: mutant loxP #3271 (dsDNA)
DNA 1: B1 DNA 1 with G16C, C18A, G20A
DNA 2: B1 DNA 2 with C15T, G17T, C19G
B18: mutant loxP #5373 (dsDNA)
DNA 1: B1 DNA 1 with G20T
DNA 2: B1 DNA 2 with C15A
B19: mutant loxP #6272 (dsDNA)
DNA 1: B1 DNA 1 with C18A, T19A, G20C
DNA 2: B1 DNA 2 with C15G, A16T, G17T
B20: mutant loxP #6373 (dsDNA)
DNA 1: B1 DNA 1 with C18A, T19G, G20T
DNA 2: B1 DNA 2 with C15A, A16C, G17T
B21: mutant loxP #5272 (dsDNA)
DNA 1: B1 DNA 1 with C18T, G20C
DNA 2: B1 DNA 2 with C15G, G17A
B22: mutant loxP #3373 (dsDNA)
DNA 1: B1 DNA 1 with G16T, C18A, G20T
DNA 2: B1 DNA 2 with C15A, G17T, C19A
B23: mutant loxP #3272 (dsDNA)
DNA 1: B1 DNA 1 with G16C, C18A, G20C
DNA 2: B1 DNA 2 with C15G, G17T, C19G
B24: mutant loxP #2373 (dsDNA)
DNA 1: B1 DNA 1 with T15G, C18A, G20T
DNA 2: B1 DNA 2 with C15A, G17T, A20C
B25: mutant loxP #3372 (dsDNA)
DNA 1: B1 DNA 1 with G16T, C18A, G20C
DNA 2: B1 DNA 2 with C15G, G17T, C19A
B26: mutant loxP #11 (dsDNA)
DNA 1: B1 DNA 1 with A14G, C18A
DNA 2: B1 DNA 2 with G17T, T21C
B27: mutant loxP #21 (dsDNA)
DNA 1: B1 DNA 1 with T15C, C18A
DNA 2: B1 DNA 2 with G17T, A20G
B28: mutant loxP #13 (dsDNA)
DNA 1: B1 DNA 1 with A14C, C18A
DNA 2: B1 DNA 2 with G17T, T21G
B29: mutant loxP #22 (dsDNA)
DNA 1: B1 DNA 1 with T15A, C18A
DNA 2: B1 DNA 2 with G17T, A20T
B30: mutant loxP #33 (dsDNA)
DNA 1: B1 DNA 1 with G16T, C18A
DNA 2: B1 DNA 2 with G17T, C19A
B31: mutant loxP #23 (dsDNA)
DNA 1: B1 DNA 1 with T15G, C18A
DNA 2: B1 DNA 2 with G17T, A20C
B32: mutant loxP #32 (dsDNA)
DNA 1: B1 DNA 1 with G16C, C18A
DNA 2: B1 DNA 2 with G17T, C19G
B33: mutant loxP #12 (dsDNA)
DNA 1: B1 DNA 1 with A14T, C18A
DNA 2: B1 DNA 2 with G17T, T21A

Numbering of substitutions follows the chain as printed.

The target in the first data set is T1, Cre recombinase (UniProt P06956 P06956:1-343). Put plainly: self x self; intermediate 1. To be noted: tags: expressed from recombinant adenovirus AxCANCre in 293 cells. Here is the method: (§1) Substrate DNA (1 μg) prepared in (3) and cell extract containing Cre (10 μl) prepared in (1) were incubated at 37° C. for 30 min in a 50 μl volume of buffer containing 50 mM Tris-HCl (pH 7.5)/10 mM MgCl2/1 mg/ml bovine serum albumin/1 mM phenylmethylsulfonyl fluoride (PMSF)/5 μg/ml aprotinin. After completion of the reaction, 45 μl of TE buffer (pH 8.0) and 5 μl of EDTA solution (pH 8.0) were added to the reaction mixture, extracted with phenol/chloroform and with chloroform, followed ethanol precipitation. The recovered DNA was dissolveld in 30 μl of TE buffer (pH 8.0) containing RNase A (20 μg/ml). Half volume thereof was digested with restriction enzyme BsaHI. The DNA bands detected by ethidium bromide (EtBr) staining after agarose gel electrophoresis, were analyzed.
T1 sequence (P06956 whole entry, one chain of several): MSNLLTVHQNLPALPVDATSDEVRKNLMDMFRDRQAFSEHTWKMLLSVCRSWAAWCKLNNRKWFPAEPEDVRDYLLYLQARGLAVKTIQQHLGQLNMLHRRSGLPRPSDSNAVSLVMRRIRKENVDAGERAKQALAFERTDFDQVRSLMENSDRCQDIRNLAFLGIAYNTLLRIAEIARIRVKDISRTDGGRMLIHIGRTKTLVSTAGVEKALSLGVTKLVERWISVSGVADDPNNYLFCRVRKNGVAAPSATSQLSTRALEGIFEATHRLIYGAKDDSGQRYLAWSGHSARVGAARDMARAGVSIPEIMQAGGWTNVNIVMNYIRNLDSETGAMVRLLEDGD
(§2) Before recombination mediated by Cre, restriction enzyme BsaHI digestion of linear substrate DNA (approx. 4.1 kb) generates four bands of 2.7 kb, 610 bp, 380 bp and 360 bp. On the other hand, as a result of recombination of substrate DNA mediated by Cre, a circular DNA of approx. 4.0 kb containing one mutant loxP, and a linear DNA of approx. 50 bp consisting of only mutant loxP, are produced. Digestion of these DNA with restriction enzyme BsaHI generates four bands of 2.7 kb, 920 bp, 380 bp and 50 bp (refer to FIG. 6).
On to B1, for which the activity was found to be 8 grade 0-9 final product.

Consider B2, for which the activity was 9 grade 0-9 final product.

On to B3, for which the activity was found to be 7 grade 0-9 final product.

On to B4, for which the activity was 9 grade 0-9 final product.

On to B5, for which the activity was 9 grade 0-9 final product.

Regarding B6, the activity is 8 grade 0-9 final product.

On to B7, for which the activity is 8 grade 0-9 final product.

Another data set deals with T1, Cre recombinase. Put plainly: self x self; intermediate 4. To be noted: tags: expressed from recombinant adenovirus AxCANCre in 293 cells.
Take B8: the activity is 2 grade 0-9 final product.

On to B9, for which the activity was 1 grade 0-9 final product.

With B10, the activity came out at 7 grade 0-9 final product.

As for B11, the activity is 2 grade 0-9 final product.

As to B12, the activity stood at 2 grade 0-9 final product.

The next data set deals with T1, Cre recombinase. Put plainly: self x self; intermediate 3. The settings on record: tags: expressed from recombinant adenovirus AxCANCre in 293 cells.
B13: the activity was 3 grade 0-9 final product.

B14: the activity came to 2 grade 0-9 final product.

With B15, the activity stood at 4 grade 0-9 final product.

In the case of B16, the activity was found to be 2 grade 0-9 final product.

For B17, the activity is 4 grade 0-9 final product.

The next data set addresses T1, Cre recombinase. Put plainly: self x self; intermediate 1. The settings on record: tags: expressed from recombinant adenovirus AxCANCre in 293 cells. The source holds these as a separate data set.
As to B18, the activity is 2 grade 0-9 final product.

Take B19: the activity amounted to 2 grade 0-9 final product.

On to B20, for which the activity turned out to be 2 grade 0-9 final product.

With B21, the activity is 4 grade 0-9 final product.

Another data set concerns the target T1, Cre recombinase. Put plainly: self x self; intermediate 6. The settings on record: tags: expressed from recombinant adenovirus AxCANCre in 293 cells.
In the case of B22, the activity worked out at 2 grade 0-9 final product.

For the molecule B23, the activity stood at 2 grade 0-9 final product.

As to B24, the activity was determined as 1 grade 0-9 final product.

As to B25, the activity was 1 grade 0-9 final product.

The next data set concerns the target T1, Cre recombinase. Put plainly: self x self; intermediate 4. To be noted: tags: expressed from recombinant adenovirus AxCANCre in 293 cells. This is another data set of the same source. As for the experimental part: as §1, §2
For the molecule B26, the activity worked out at 2 grade 0-9 final product.

For B27, the activity is 5 grade 0-9 final product.

For the molecule B28, the activity turned out to be 3 grade 0-9 final product.

For B29, the activity was 5 grade 0-9 final product.

In another data set the target is T1, Cre recombinase. Put plainly: self x self; intermediate 6. The settings on record: tags: expressed from recombinant adenovirus AxCANCre in 293 cells. The source holds these as a separate data set. Here is the method: as §1, §2
B30: the activity amounted to 6 grade 0-9 final product.

Take B31: the activity was found to be 5 grade 0-9 final product.

On to B32, for which the activity was 3 grade 0-9 final product.

With B33, the activity was 3 grade 0-9 final product.

The values are drawn from patent publication US6465254, “Mutant loxP site and applications thereof” (Sumitomo Pharmaceuticals Company, Limited).
